In paper PMC10703496:

Assays:
[1] = molecular target: 6×His-tagged receptor-binding domain (RBD) of SARS-CoV-2 spike, Wuhan (SARS-CoV-2) (UniProt P0DTC2); assay: SPR
[2] = molecular target: spike protein of live Wuhan SARS-CoV-2 (SARS-CoV-2) (UniProt P0DTC2)
[3] = molecular target: dimeric ACE2-albumin fusion: truncated human ACE2 (residues 18–740) fused to engineered human albumi (human) (UniProt Q9BYF1); assay: SEC
[4] = molecular target: soluble His-tagged human neonatal Fc receptor (human) (UniProt P55899)
soluble His-tagged human neonatal Fc receptor (human), sequence (P55899 24-297, chain 1 of 2): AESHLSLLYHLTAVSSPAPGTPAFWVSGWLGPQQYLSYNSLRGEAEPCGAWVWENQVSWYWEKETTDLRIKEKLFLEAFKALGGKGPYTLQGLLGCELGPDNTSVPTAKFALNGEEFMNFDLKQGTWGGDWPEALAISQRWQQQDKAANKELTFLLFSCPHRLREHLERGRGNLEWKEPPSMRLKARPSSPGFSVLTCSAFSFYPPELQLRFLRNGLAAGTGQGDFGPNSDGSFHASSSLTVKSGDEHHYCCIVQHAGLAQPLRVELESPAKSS
soluble His-tagged human neonatal Fc receptor (human), sequence (P61769 21-119, chain 2 of 2, further chain): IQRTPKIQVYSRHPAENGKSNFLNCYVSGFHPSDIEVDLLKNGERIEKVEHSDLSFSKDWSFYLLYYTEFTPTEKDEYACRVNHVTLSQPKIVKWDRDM

[5] = molecular target: dimeric ACE2-albumin fusion: truncated human ACE2 (residues 18–740) fused to full-length wild-type human albumin (human) (UniProt Q9BYF1); assay: SEC
[6] = molecular target: ACE2(18–740)-WT: truncated dimeric human ACE2 (residues 18–740) fused to the N-terminal end of full- (human) (UniProt Q9BYF1); assay: SPR; pH 5.5
[7] = molecular target: ACE2(18–740)-WT: truncated dimeric human ACE2 (residues 18–740) fused to the N-terminal end of full- (human) (UniProt Q9BYF1); assay: SPR

soluble His-tagged human neonatal Fc receptor (human FcRn-His), sequence (P55899 24-297): as the sequence (P55899 24-297, chain 1 of 2) above
soluble His-tagged human neonatal Fc receptor (human FcRn-His), sequence (P61769 21-119): as the sequence (P61769 21-119, chain 2 of 2, further chain) above

Substance | Kd [1] | koff [1] | kon [1] | further results
ACE2(18–615)-QMP: monomeric ACE2 peptidase domain (residues 18–615) fused to the N-terminal end of QMP human albumin (from UniProt Q9BYF1-1;P02768) | 108 nM | 0.026 s⁻¹ | 240000 M⁻¹ s⁻¹ | –
ACE2(18–615)-WT: monomeric ACE2 peptidase domain (residues 18–615) fused to the N-terminal end of fu (from UniProt Q9BYF1-1;P02768) | 327 nM | 0.0124 s⁻¹ | 38000 M⁻¹ s⁻¹ | –
ACE2(18–740)-WT: truncated dimeric human ACE2 (residues 18–740) fused to the N-terminal end of full- (from UniProt Q9BYF1-1;P02768) | 0.9 nM | 0.00015 s⁻¹ | 166000 M⁻¹ s⁻¹ | Table S3: IC50 of live virus neutralization (Wuhan SARS-CoV-2 on Vero E6 cells) [2]: 293 nM
dimeric ACE2-albumin fusion: truncated human ACE2 (residues 18–740) fused to engineered human albumi (from UniProt Q9BYF1 18-740) | – | – | – | stoichiometry N [3]: 2
dimeric ACE2-albumin fusion: truncated human ACE2 (residues 18–740) fused to full-length wild-type human albumin (from UniProt Q9BYF1;P02768) | – | – | – | plasma half-life after IV injection in human FcRn Tg32 mice [4]: 26.4 h; stoichiometry N [5]: 2
soluble His-tagged human neonatal Fc receptor (human FcRn-His) (from UniProt P55899 24-297; P61769 21-119) | – | – | – | Kd [6]: 102 nM; koff [6]: 0.0061 s⁻¹; kon [7]: 60000 M⁻¹ s⁻¹
